Measured values reported in publication PMC8366792.

Columns and labels:
[1] = molecular target: CH848 10.17DT DS SOSIP trimer (HIV-1 (CH848 10.17) | HIV-1 (BG505)) (UniProt Q2N0S6); assay: SEC
[2] = molecular target: CH848 10.17DT SOSIPv4.1 trimer (HIV-1 (CH848 10.17) | HIV-1 (BG505)) (UniProt Q2N0S6); assay: SEC

Substance	percent of the total peak that is trimer [1]	stoichiometry N [1]	percent of the total peak that is trimer [2]
CH848 10.17DT DS SOSIP trimer (from UniProt Q2N0S6 509-661) (domain or fragment)	65%	3	–
CH848 10.17DT SOSIPv4.1 trimer (from UniProt Q2N0S6 509-661) (domain or fragment)	–	–	62%
